According to patent US7981997B2, “Growth factor which acts through ErbB-4 RTK” (Yeda Research And Development Co., priority 2000, dated 2011):

Molecular target: T1, ErbB-4 co-expressed with ErbB-1 (Homo sapiens, UniProt Q15303)
T1 construct: expressed in transfected cells; host or cells: CHO (Chinese Hamster Ovary) cells, transient co-transfection
Test: Covalent crosslinking to CHO cells co-transfected with ErbB-4 and ErbB-1
Type: binding
Protocol: CHO cells were transfected with vectors directing expression of the indicated ErbB proteins or their combinations. Two days later cell monolayers were incubated with either ^125I-NRG-1β or ^125I-NRG-4 (EGF-like domains, each at 100 ng/ml). Following 2 hours at 4° C., the covalent crosslinking reagent bis(sulfosuccinimdyl)-suberate (BS^3) was added (1 mM final concentration) and cell extracts prepared after an additional 45 minutes of incubation. The indicated ErbB proteins were then immunoprecipitated with mouse monoclonal antibodies, and the complexes resolved by gel electrophoresis and autoradiography. Arrows mark the locations of monomeric (M) and dimeric (D) receptor complexes.
Growth factors were labeled with Iodogen (Pierce) as described (Karunagaran et al., 1995). Chemical crosslinking to Chinese Hamster Ovary (CHO) cells engineered to express different ErbB combinations have been performed essentially as described (Tzahar et al., 1996). Briefly, radiolabeled ligands (at 100 ng/ml) were incubated for 2 hours with cell monolayers at 4 C. […] Non-specific binding was determined in the presence of a 100-fold molar excess of the unlabeled ligani. Cells were then washed, lysed in a solution containing 0.1 M NaOH and 0.1% SDS, and radioactivity determined by use of a gamma counter. […]

B1: NRG-4: synthetic refolded mouse EGF-like domain of NRG-4 (residues 4 to 50, SEQ ID NO:2) (peptide, listed as Mus musculus)
chain: MPTDHEQPCGPRHRSFCLNGGICYVIPTIPSPFCRCIENYTGARCEEVFLPSSSIPSESNLSAAFVVLAVLLTLTIAALCFLCRKGHLQRASSVQCEISLVETNNTRTRHSHREH
effect of ErbB-1 co-expression on the radioactive signal (CHO cells, ErbB-4 + ErbB-1): did not significantly affect the radioactive signals | heterodimers of ErbB-4 with ErbB-1 (precipitation with anti-ErbB-1 antibodies): existence of NRG-4-promoted heterodimers
